Results: publication doi:10.1101/492215

Target: HTT^1-3144 Q23, C-terminally FLAG-tagged (human)
Assay: SEC-MALS

HTT^1-3144 Q23, C-terminally FLAG-tagged (natural protein)
stoichiometry N: 2
